Results as given in the supplement of paper PMC9170038.

tested on: MS2 coat protein; assay: apparent KD of MS2 coat protein, switch OFF state (with FMN for OFF switches, without FMN for ON switches); designed switch direction (-1 OFF switch, 1 ON switch): -1; higher = weaker reporter binding; conditions: FMN input: 0 or 200 uM; Eterna round: R93 (includes R88 designs)
Outline: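 Each design's apparent KD comes from the median of binding-curve fits to its normalised clusters. Those clusters carried RNA switches transcribed on-chip from Illumina sequencing clusters. SNAP-549-labelled MS2 coat protein was titrated onto them in twofold steps (0.7 or 1.5 nM to 3 µM; per step 0.8–1.5 h down to 10–20 min). Conditions were 100 mM Tris-HCl pH 7.5, 80 mM KCl, 4 mM MgCl2, without or with constant ligand.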

How did the “apparent KD of MS2 coat protein” value turn out when “AAGAAACAUGAGGAUCACCCAUGUGAGGAUAUGGAAAAGAAAAGAAAAGAAAGAAGAACCAGAAGGCACAAAGG [Neferkare (VI) Pepiseneb]” was run?
Its value is 50.8 nM.

With “AAAAAACAUGAGGAUCACCCAUGUGAGGAUAUCGCUAGUGAGACCCUAGUGUCAGUGAUGAGAAGGCACAUAAA [Brourd 613 Mod 8 - Jieux - Exclusion 1]” as the sequence, how does the “apparent KD of MS2 coat protein” value read?
The value was 32.5 nM.

For “AAGAAGUGAGGAUAUCGAAGACUGUCGAAAAGACAGUCGAACGAGAAGGCACAUGAGGAUCACCCAUGUGAGGA [Marsurpial 65% 2]”, which “apparent KD of MS2 coat protein” value is on record?
The value was 50.1 nM.

“AUGGUAGGAGGAUAUACAUAGAUACAGAUACAUGUAGACGUACAUGAGGAUCACCCAUGUAGAAGGCCUAUAAA [Mat - Same state - Mayanna Mod - D150]” was tested. Which “apparent KD of MS2 coat protein” value did it give?
The value was 82.3 nM.

For “AGUAGAUCAGGAUAUACAUAAAUGAUAAUUAUGUAACUUUUACAUGAGGAUCACCCAUGUAGAAGGGAUCUACA [Ex2 Design 130: Not so Super Stable 18]”, which “apparent KD of MS2 coat protein” value is on record?
Its value is 15.8 nM.

For “UGGGAGUCAGGAUAUACGAACAUGUCGCCAGAUGUCAAGGUACAUGAGGAUCACCCAUGUAGAAGGGACGAGAA [salish99-Ex2-28]”, which “apparent KD of MS2 coat protein” value is on record?
The value was 34.1 nM.

Which “apparent KD of MS2 coat protein” value does the source give for “AAGAAGCUAGGAUAUACUAACGAAACUAAUGCAUAGAUAAAACAUGAGGAUCACCCAUGUAGAAGGAGCAGAAU [JR_Exc002_Sub014]” here?
Its value is 20.6 nM.

Which “apparent KD of MS2 coat protein” value does the source give for “AAAAAACAUGAGGAUCACCCAUGUGAGGAUAUACAGAAUGGAAUAAAAUAACAAGAAAGUAGAAGGCACAAAAA [Ex 1 May 38]” here?
The value was 41.6 nM.

Which “apparent KD of MS2 coat protein” value does the source give for “AAAAAGGAAGGAUAUACAUGAGGAUCACCCAUGUAAAAAAAAAAAAAGGGAAAAAAAAGUAGAAGGUCCAAAAA [Montuemsaf Djedankhre]” here?
Its value is 40.9 nM.

With “AAGAAGUAAGGAUAUCGAAGACUGUCGAAAAGACAGUCGAACGAGAAGGUACAUGAGGAUCACCCAUGUGAGAA [Opal 24]” as the sequence, how does the “apparent KD of MS2 coat protein” value read?
The value was 41 nM.

“AACAGUACAGGAUAUACAUGAGGAUCACCCAUGUGAAAAUUAAGUGGCGUACCACAAUGUAGAAGGGUACUGAA [Mat - Exclusion 3 - Eli mod - D46]” was tested. Which “apparent KD of MS2 coat protein” value did it give?
The value was 232 nM.

With “AUCUUGUCAGGAUAUGACUACAUAAAAAAAAAAAAAUGUAGUCAGAAGGGACAUGAGGAUCACCCAUGUACUAA [hsl_exclusion4]” as the sequence, how does the “apparent KD of MS2 coat protein” value read?
Its value is 62.4 nM.

For “AAAACUGGAGGAUAUACAUGAGGAUCACCCAUGUGUGGAUGAGCUGAGACGGCAUCACGUAGAAGGCCACAAAA [Gilly Gone Silly 39 - Jieux - Exclusion 3]”, which “apparent KD of MS2 coat protein” value is on record?
Its value is 44 nM.

For “AAAAAGUCAGGAUAUACAAAAGUGCGAAAGCACAAAAUGGGACAUGAGGAUCACCCAUGUAGAAGGGACAAGAA [JL In the Red 01 (Mod)]”, which “apparent KD of MS2 coat protein” value is on record?
The value was 472 nM.

Which “apparent KD of MS2 coat protein” value does the source give for “CUCAAGUUAGGAUAUCUAAGAAAAGAAGAGAAAGAAAAGAAAGAGAAGGAACAUGAGGAUCACCCAUGUAAGAA [EteRNA is fun!]” here?
Its value is 25.7 nM.

“CCCUCACAUGAGGAUCACCCAUGUGAGGAUAUGCAUAAAAAAAAAAAAAAAAAAAAAUGCAGAAGGCACAUGAA [jn_irvington]” was tested. Which “apparent KD of MS2 coat protein” value did it give?
Its value is 11.1 nM.

With “AAAAAGUCAGGAUAUGUAGCAUGAUACGAAAGUAUCAUGCUACAGAAGGGACAUGAGGAUCACCCAUGUGAUCA [Ex4: 938]” as the sequence, how does the “apparent KD of MS2 coat protein” value read?
The value was 33.2 nM.

Which “apparent KD of MS2 coat protein” value does the source give for “UAUAGACAUGAGGAUCACCCAUGUGAGGAUAUGAGUGACUACAGGACAUCACGUACAAUCAGAAGGCACAGAAA [JR_Exc001_Sub016]” here?
The value was 60.9 nM.

Which “apparent KD of MS2 coat protein” value does the source give for “AAAAAUGGAGGAUAUACAUGAGGAUCACCCAUGUUAGACCUAAAAAAAGGGAAAGAAAGUAGAAGGCCAUAAAA [Ex 3 May 29]” here?
Its value is 20.6 nM.

Which “apparent KD of MS2 coat protein” value does the source give for “AAAAAGGCAGGAUAUACAUGAGGAUCACCCAUGUGCAAAAAAAAAAAAAAAAAAACAUGUAGAAGGGCCGAAAA [Skynet (1?)]” here?
Its value is 86.3 nM.

For “CAGUACUGAGGAUAUACAUGAGGAUCACCCAUGUGUAAAAGCUAGGAAACUAGCAAAUGUAGAAGGCAGUACUG [Ex3: 816]”, which “apparent KD of MS2 coat protein” value is on record?
Its value is 36.5 nM.

For “AAAAAACAUGAGGAUCACCCAUGUGAGGAUAUACAAAACCCAUAUAAAAAGGGAAAAAGUAGAAGGCGCAAAAA [wbt round 1 mod 8]”, which “apparent KD of MS2 coat protein” value is on record?
Its value is 24.3 nM.

For “AAAUUGUCAGGAUAUCCUAUAAUAAUAAAAUAGAGGAAAUAGGAGAAGGGACAUGAGGAUCACCCAUGUAAAAC [May 84]”, which “apparent KD of MS2 coat protein” value is on record?
The value was 37 nM.

How did the “apparent KD of MS2 coat protein” value turn out when “AAAAGUAGAGGAUAUACAUGAGGAUCACCCAUGUAGAAAGGAAGUAUAUAUAUGGCGUGUAGAAGGCUGCAUGA [Mat - Mod of Nando]” was run?
Its value is 28 nM.

For “AACAGUACAGGAUAUACAUGAGGAUCACCCAUGUAAAAGGGAAGUGGCGUACCACAAAGUAGAAGGGUACUGGA [Moding Maslow revisited (73) 6]”, which “apparent KD of MS2 coat protein” value is on record?
The value was 121 nM.

“GAAAACAGAGGAUAUACAAAAUUAUGACGAAAGUCAUAAAAACAUGAGGAUCACCCAUGUAGAAGGCUGAAGAA [Meechl MS2 Ex2]” was tested. Which “apparent KD of MS2 coat protein” value did it give?
The value was 21.6 nM.

“AAGAACCUAGGAUAUACUAAAGAAAUGAAAAGAAAUAAAGAACAUGAGGAUCACCCAUGUAGAAGGAGGAAGAA [Sewadjkare III]” was tested. Which “apparent KD of MS2 coat protein” value did it give?
Its value is 26.1 nM.

“AAGAAGUCAGGAUAUACAAAAUAAAAGAAAAGAAAGAAAGAACAUGAGGAUCACCCAUGUAGAAGGGACAAGAA [Nerikare]” was tested. Which “apparent KD of MS2 coat protein” value did it give?
Its value is 37.4 nM.

“GGAUGCGAAGGAUAUACAUGAGGAUCACCCAUGUGAGAGAAAAAAGUGAGAAAGAAAAGUAGAAGGUCGUGUCG [salish99-ex3-93]” was tested. Which “apparent KD of MS2 coat protein” value did it give?
The value was 97.2 nM.

How did the “apparent KD of MS2 coat protein” value turn out when “CUCUUGUCAGGAUAUGCAAGAAAAGAAAAGAAAGAAAAGAAGCAGAAGGGACAUGAGGAUCACCCAUGUAAGAA [EteRNA is fun!]” was run?
Its value is 77.7 nM.

How did the “apparent KD of MS2 coat protein” value turn out when “AUAGUACAUGAGGAUCACCCAUGUCAGGAUAUUGGAUAUGACAAAAAAAAAAAGUUAACGAGAAGGGACUAUAA [EX1 Malc#15]” was run?
Its value is 36.6 nM.

For “AAGGGACAUGAGGAUCACCCAUGUGAGGAUAUGCUAUGGAAAAUAAAAAAUAAACAUAGCAGAAGGCAUAAAAA [Mat - Exclusion 1 - Eli mod - D37]”, which “apparent KD of MS2 coat protein” value is on record?
Its value is 72.3 nM.

“AAAAUGUGAGGAUAUGUACGAAAAAAUAAAAAAAUAAAAGUACAGAAGGCACAUGAGGAUCACCCAUGUGUGGG [EX4 400: Minimal 13]” was tested. Which “apparent KD of MS2 coat protein” value did it give?
The value was 76.1 nM.

With “AGAAAGCUAGGAUAUACCUGGAGGGUUCGAAAUGAAAUAAAACAUGAGGAUCACCCAUGUAGAAGGAGCCCGAG [Veislela]” as the sequence, how does the “apparent KD of MS2 coat protein” value read?
The value was 28 nM.

How did the “apparent KD of MS2 coat protein” value turn out when “CUCAAGUAAGGAUAUAGAAGAAAAGAAGAGAAAGAAAAGAACUAGAAGGUACAUGAGGAUCACCCAUGUAAGAA [EteRNA is fun!]” was run?
The value was 21.5 nM.

Which “apparent KD of MS2 coat protein” value does the source give for “AAGGGACAUGAGGAUCACCCAUGUUAGGAUAUCGGAAAAGGAAAAAAAAAAAAGAAGACGAGAAGGGACACCAA” here?
The value was 48.8 nM.

For “AAAAAGCGAGGAUAUACAUGAGGAUCACCCAUGUGAAAAAAAAAAAAAAAAAAAAAAAGUAGAAGGCGCAAAAA [GC super strong! + G boost]”, which “apparent KD of MS2 coat protein” value is on record?
The value was 39.2 nM.

Which “apparent KD of MS2 coat protein” value does the source give for “GGAAAGCAAGGAUAUGCAAACAAACAAACAAACAAAAGGGAACAUGAGGAUCACCCAUGUAGAAGGUGCAAACA [Exclusion 2 Two redone]” here?
Its value is 28.6 nM.

How did the “apparent KD of MS2 coat protein” value turn out when “AUAGGGCUAGGAUAUACAUGAGGAUCACCCAUGUAAACAGAUAGAUCAAGGUAAACGAGUAGAAGGAGCAAUAA [JR_Exc003_Sub210]” was run?
Its value is 18.8 nM.

For “AGGGUACAUGAGGAUCACCCAUGUUAGGAUAUUGAAAAGAAAAGAAAAGAAAGAAGAACAAGAAGGGACAAGAA [Userkare]”, which “apparent KD of MS2 coat protein” value is on record?
The value was 45.7 nM.

How did the “apparent KD of MS2 coat protein” value turn out when “CUCUUGUCAGGAUAUGAAAGAAAAGAAAAGAAAGAAAAGAAUCAGAAGGGACAUGAGGAUCACCCAUGUAAGAA [EteRNA is fun!]” was run?
The value was 76.9 nM.

Which “apparent KD of MS2 coat protein” value does the source give for “AAGAAUGCAGGAUAUACAAAAUAAAAGAAAAGAAAGAAAGAACAUGAGGAUCACCCAUGUAGAAGGGCAAAGAA [Menwadjre Sihathor]” here?
The value was 28.2 nM.

With “AAGAACGGAGGAUAUACUAAAGAAAUGAAAAGAAAUAAAGAACAUGAGGAUCACCCAUGUAGAAGGCCGAAGAA [Sehebre]” as the sequence, how does the “apparent KD of MS2 coat protein” value read?
Its value is 23.7 nM.

For “AAAAAGAUAGGAUAUACGUACAUGUCGAAAGACGUGAAGGGACAUGAGGAUCACCCAUGUAGAAGGGUUAAAAA [Mat - Exclusion 2 - JL mod - D91]”, which “apparent KD of MS2 coat protein” value is on record?
The value was 52.4 nM.

“AAGAACUGAGGAUAUACAUGAGGAUCACCCAUGUAAAAGAAAGAAGGGAAAGAGAAAAGUAGAAGGCAGAAGAA [Inamunnifnebu]” was tested. Which “apparent KD of MS2 coat protein” value did it give?
The value was 27.8 nM.
